For the experiment, the target named is GFPuv (heat-aggregated). The experiment can be described thus: BLI; aggregated GFPuv as the sensor-bound substrate; Ssa1 and Ydj1 in solution; As(III) at the aggregation step (Fig. S3A). On the technique in general: BLI is a label-free optical method that tracks binding on a fibre tip over time.

Sequence of Ydj1 (P25491 whole entry): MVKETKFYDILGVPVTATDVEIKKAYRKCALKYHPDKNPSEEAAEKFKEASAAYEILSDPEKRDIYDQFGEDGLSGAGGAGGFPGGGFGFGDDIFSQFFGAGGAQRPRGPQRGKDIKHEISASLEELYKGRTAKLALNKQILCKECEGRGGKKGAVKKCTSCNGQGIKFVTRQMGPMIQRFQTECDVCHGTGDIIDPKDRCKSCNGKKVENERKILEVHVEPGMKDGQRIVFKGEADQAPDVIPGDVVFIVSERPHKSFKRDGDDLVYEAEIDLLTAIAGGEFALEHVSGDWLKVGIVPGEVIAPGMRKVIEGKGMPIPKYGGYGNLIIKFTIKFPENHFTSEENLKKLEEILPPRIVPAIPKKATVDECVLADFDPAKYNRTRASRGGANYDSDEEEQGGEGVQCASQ
Sequence of Ssa1 (P10591 whole entry): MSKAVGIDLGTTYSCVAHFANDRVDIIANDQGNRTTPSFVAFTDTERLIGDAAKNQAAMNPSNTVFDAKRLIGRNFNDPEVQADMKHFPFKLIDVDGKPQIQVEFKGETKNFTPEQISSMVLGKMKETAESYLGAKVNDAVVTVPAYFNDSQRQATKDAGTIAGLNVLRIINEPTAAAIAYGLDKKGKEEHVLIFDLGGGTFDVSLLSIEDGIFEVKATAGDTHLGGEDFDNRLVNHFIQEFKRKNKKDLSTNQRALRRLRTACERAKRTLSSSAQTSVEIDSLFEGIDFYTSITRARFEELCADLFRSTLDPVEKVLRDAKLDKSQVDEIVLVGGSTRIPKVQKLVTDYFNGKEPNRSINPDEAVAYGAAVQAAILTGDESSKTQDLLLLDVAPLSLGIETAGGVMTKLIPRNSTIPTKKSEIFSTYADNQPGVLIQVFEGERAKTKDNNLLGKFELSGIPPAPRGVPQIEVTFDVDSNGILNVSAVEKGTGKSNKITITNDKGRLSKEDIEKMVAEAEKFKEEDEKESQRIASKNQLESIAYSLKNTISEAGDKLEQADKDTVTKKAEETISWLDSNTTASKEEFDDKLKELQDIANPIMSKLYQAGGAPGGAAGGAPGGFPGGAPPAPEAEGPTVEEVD

As to “Ssa1 (from UniProt P10591 1-642) (natural protein)”, the reduction of binding to aggregates generated in the presence of 1 mM As(III), against aggregates generated without As(III) was 30%.

Turning to “Ydj1 (from UniProt P25491 1-409) (natural protein)”, the reduction of binding to aggregates generated in the presence of 1 mM As(III), against aggregates generated without As(III) stood at 30%.
